Measurements published in the nanobody polyreactivity screen of Harvey et al. (2022).

Test: yeast display, Sf9 membrane polyspecificity reagent, FACS + sequencing; frameworks hold sequencing errors
Method in brief: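 Nanobodies from a synthetic yeast display library (Saccharomyces cerevisiae BJ5465), induced 36–48 hours with galactose, were stained 1 hour at 4 °C with 10% biotinylated, detergent-solubilized Sf9 membrane reagent, enriched on streptavidin microbeads, then FACS-sorted. Anti-HA (expression) and streptavidin (reagent binding) fluorescence set low and high (top ~1%) gates. Polyreactivity labels come from the gate of origin. Genes were colony-PCR amplified, MiSeq 2 × 250 sequenced and filtered by CDR length.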
With “QVQLVESGGGLVQAGGSLRLSCAASGRIFPFYAMGWYRQAPGKETELVAVINASGGGTYYADSVKGRFTISRDNAKNTVYLQMNSLKPEDTAVYYCAATYSPFDFYYWGQGTQVTVSS” the “polyreactivity (PSR sort gate)” value was “low polyreactivity”.
In the case of “QVQLVESGGGLVQAGGSLRLSCAASGRIFPFYVMGWYRQAPGKERELVASIRGGGSTNYADSVKGRFTISRDNAKNTVYLQMNSLKPEDTAVYYCNAARRYRAPLYDYWGQGTQVTVSS”, the “polyreactivity (PSR sort gate)” value is reported as “high polyreactivity”.
In the case of “QVQLVESGGGLVQAGGSLRLSCAASGRIFPHYAMGWYRQAPGKERELVAAISSGGRTNYADSVKGRFTISRDNAKNTVYLQMNSLKPEDTAVYYCARRYPGGYYWGQGTQVTVSS”, the “polyreactivity (PSR sort gate)” value is reported as “high polyreactivity”.
With “QVQLVESGGGLVQAGGSLRLSCAASGRIFPKYAMGWYRQAPGKERELVARISVRGGRTYYADSVKGRFTISRDNAKNTVYLQMNSLKPEDTAVYYCAAYTRPAYDYWGQGTQVTVSS” the “polyreactivity (PSR sort gate)” value was “high polyreactivity”.
For “QVQLVESGGGLVQAGGSLRLSCAASGRIFPSNTMGWYRQAPGKERELVADISFGGGSTYYADSVKGRFTISRDNAKNTVYLQMNSLKPEDTAVYYCNADFGFGYVSLLYEYWGQGTQVTVSS”, the “polyreactivity (PSR sort gate)” value was “low polyreactivity”.
In the case of “QVQLVESGGGLVQAGGSLRLSCAASGRIFPSYAMGWYRPAPGKERELVAAITRGSTTYYADSVKGRFTISRDNAKNTVYLQMNSLKPEDTAVYYCAAEENLAYYFKYYYWGQGTQVTVSS”, the “polyreactivity (PSR sort gate)” value is reported as “low polyreactivity”.
For “QVQLVESGGGLVQAGGSLRLSCAASGRIFPSYAMGWYRPAPGKERELVAAITWSGGSTYYAHSVKGRFTISRDNAKNTVYLLRNSLKPEDTAVYYCNRVERRGTYDYWGQGTQVSVSS”, the “polyreactivity (PSR sort gate)” value was “high polyreactivity”.
For “QVQLVESGGGLVQAGGSLRLSCAASGRIFPTNAMGWYRQAPGKERELVASITRSGSTYYADSVKGRFTISRDNAKNTVYLQMNSLKPEDTAVYYCAAYAYIFLDWGGYPYYLYEYDYWGQGTQVTVSS”, the “polyreactivity (PSR sort gate)” value was “low polyreactivity”.
With “QVQLVESGGGLVQAGGSLRLSCAASGRIFPTYAMGWYRQAPGKERELVASITSGVDTYYADSVKGRFTISRDNAKNTVYLQMNSLKPEDTAVYYCAARFFVWWKYDYWGQGTQVTVSS” the “polyreactivity (PSR sort gate)” value was “low polyreactivity”.
With “QVQLVESGGGLVQAGGSLRLSCAASGRIFPWYTMGWYRQAPGKERELVAAITSGGNTDYADSVKGRFTISRDNAKNTVYLQMNSLKPEDTAVYYCAAGGYPGTTYYGYDYWGQGTQVTVSS” the “polyreactivity (PSR sort gate)” value was “low polyreactivity”.
For “QVQLVESGGGLVQAGGSLRLSCAASGRIFPWYTMGWYRQAPGKERELVAVISSGGRTHYADSVKGRFTISRDNAKNTVYLQMNSLKPEDTAVYYCAAESRYQRYDYWGQGTQVTVSS”, the “polyreactivity (PSR sort gate)” value was “high polyreactivity”.
In the case of “QVQLVESGGGLVQAGGSLRLSCAASGRIFPYYAMGWSRQAPGKEREFVAAITKRGGSTSYADSVKGRFTISRDNAKNTVYLQMNSLKPQDTAVYYCNARLYRGQDRYDYWGQGTQVTVSS”, the “polyreactivity (PSR sort gate)” value is reported as “low polyreactivity”.
For “QVQLVESGGGLVQAGGSLRLSCAASGRIFPYYAMGWYRQAPGKEREFVAAITRRGTSTYYADSVKGRFTISRDNAKNTVYLQMNSLKPEDTAVYYCNKDIISLSRSYGYWGQGTQVTVSS”, the “polyreactivity (PSR sort gate)” value was “high polyreactivity”.
For “QVQLVESGGGLVQAGGSLRLSCAASGRIFPYYAMGWYRQAPGKERELVAAISQSDGSTYYADSVKGRFTISRDNEKNTVYLQMNSLKPEVTAVYYWAKRQASYTQHRKGRGDYWGQGTQVTVSS”, the “polyreactivity (PSR sort gate)” value was “low polyreactivity”.
In the case of “QVQLVESGGGLVQAGGSLRLSCAASGRIFPYYAMGWYRQAPGKERELVAAISYSGGRTYYADSVKGRFTISRDNAKNTVYLQMNSLKPEDTAVYYCSAVVYLGYEYDYWGQGTQVTVSS”, the “polyreactivity (PSR sort gate)” value is reported as “low polyreactivity”.
In the case of “QVQLVESGGGLVQAGGSLRLSCAASGRIFPYYTMGWYRQAPGKERELVATITTGGSTNYADSVKGRFTISRDNAENTVYLQMNSLKPEDTAVYYCNNDGVVVGRFTGPQEYDYWGQGTQVTVSS”, the “polyreactivity (PSR sort gate)” value is reported as “low polyreactivity”.
In the case of “QVQLVESGGGLVQAGGSLRLSCAASGRIFQANAKGWYRQAPGKERELVAAINSGDSTYYADSVKGRFTISRDNAKNTVYLQMNSLKPEDTAVYYCAADAVFQYYTYYYWGQGTQVTVSS”, the “polyreactivity (PSR sort gate)” value is reported as “low polyreactivity”.
For “QVQLVESGGGLVQAGGSLRLSCAASGRIFQAYAMGWYRQAPGKERELVAAISRSGGGTYYADSVKGRFTISRDNAKNTVYLQMNCLKPEDTAVYYCNARGSTARGRGYWGQGTQVTVSS”, the “polyreactivity (PSR sort gate)” value was “high polyreactivity”.
In the case of “QVQLVESGGGLVQAGGSLRLSCAASGRIFQDYAMGWYRQAPGKERELVAAITWSGGRTYYADSVKGRFTISRDNAKNTVYLQMNSLKPEDTAVYYCNRLTQSRLYYGPREYYYWGQGTQVTVSS”, the “polyreactivity (PSR sort gate)” value is reported as “high polyreactivity”.
For “QVQLVESGGGLVQAGGSLRLSCAASGRIFQDYAMGWYRQPPGKERELVAAISSSGVRTYYADSVKGRFTISRDNAKNTVYVQMNSLKPEDTAVYYCATGYIFRYRQSAYVYWGQGTQVTVSS”, the “polyreactivity (PSR sort gate)” value was “high polyreactivity”.
In the case of “QVQLVESGGGLVQAGGSLRLSCAASGRIFQGFAMGGYRQAPGKERELVAAISSGGRTYYADSVKGRFTISRDNAKNTVYLQMNSLKPEDTAVYYCAARSPKANGLQRFDYWGQGSQVTVSS”, the “polyreactivity (PSR sort gate)” value is reported as “high polyreactivity”.
For “QVQLVESGGGLVQAGGSLRLSCAASGRIFQGYAMGWYRQAPGKERELVAAISYRGASTYYADSVKGRFTISRDNAKNTVYLQMNSLKPEDTAVYYCAKVTPTSTRGHDYWGQGTQVTVSS”, the “polyreactivity (PSR sort gate)” value was “low polyreactivity”.
With “QVQLVESGGGLVQAGGSLRLSCAASGRIFQGYAMGWYRQAPGKERELVARITSGSNTNYADSVKGRFTISRDNAKNTVYLQMNSLKPEDTAVYYCAKEPVGSVRYGRFQQDDYWGQGTQVTVSS” the “polyreactivity (PSR sort gate)” value was “low polyreactivity”.
With “QVQLVESGGGLVQAGGSLRLSCAASGRIFQGYAMGWYRQAPGKERELVASIRTGGTTNYADSVKGRFTISRDNAKNTVYLQMTRLKPEDNAVYYCNSGYYSYYGRYYYWGQGTQVTVSS” the “polyreactivity (PSR sort gate)” value was “high polyreactivity”.
In the case of “QVQLVESGGGLVQAGGSLRLSCAASGRIFQGYVMGWYRQAPGKERELVAAITTGGSTYYADSVKGRFTISRDNAKNTVYLQMNSLKPEDTAVYYCAAKPTRSRKIYEYWGQGTQVTVSS”, the “polyreactivity (PSR sort gate)” value is reported as “low polyreactivity”.
For “QVQLVESGGGLVQAGGSLRLSCAASGRIFQGYVMGWYRQAPGKERELVAAITTGGSTYYADSVKGRFTISRDNAKNTVYLQMNSLKPEDTAVYYCYAVVYVSGYNPYIFGYWGQGTQVTVSS”, the “polyreactivity (PSR sort gate)” value was “low polyreactivity”.
With “QVQLVESGGGLVQAGGSLRLSCAASGRIFQKNAMGWYRQAAGKERELVAAISGSGSTTNYADSVKGRFTISRDNAKNTVYLQMNSLKPEDTAVYYCATGKRGVSGRGYRYVDYDYWGQGTQVTVSS” the “polyreactivity (PSR sort gate)” value was “high polyreactivity”.
With “QVQLVESGGGLVQAGGSLRLSCAASGRIFQKYAMGWYRQAPGKERELVAAITTSGGSTYYADSVKGRFTISRDNAKNTVYLQMNSLKPEDTAVYYCAAKSTLSKEGYWGQGTHVTVSS” the “polyreactivity (PSR sort gate)” value was “high polyreactivity”.
In the case of “QVQLVESGGGLVQAGGSLRLSCAASGRIFQLYTMGWYRQAPGKERELVAAITSGTSTSYADSVKGRFTISRDNAKNTVYLQMNSLKPEDTAVYYCNKGSVSYSSVFVPYESDYWGQGTQVTVSS”, the “polyreactivity (PSR sort gate)” value is reported as “low polyreactivity”.
In the case of “QVQLVESGGGLVQAGGSLRLSCAASGRIFQPNAMGWYRQATGNERELVAAISSSGGRTYYADSVKGRFTISRDNAKNTVYLQMNSLKPEDTAVYYCNAGGYRYRSYDYWGQGNQVTVSS”, the “polyreactivity (PSR sort gate)” value is reported as “high polyreactivity”.
For “QVQLVESGGGLVQAGGSLRLSCAASGRIFQPYAMGWYRPAPGKERELVAVITSGGSTNYADSVKGRFTISRDNAKNTVYLQMNSLKPEDTAVYYCNAVRTVNDYHYDYWGQGTQVTVSS”, the “polyreactivity (PSR sort gate)” value was “high polyreactivity”.
With “QVQLVESGGGLVQAGGSLRLSCAASGRIFQPYAMGWYRQAPGKERELVAAITRRAGSTYYADSVKGRFTISRDNAKNTVYLQMNSLKPEDTAVYYCAARGLYWAYEMEYWGQGTQVTVSS” the “polyreactivity (PSR sort gate)” value was “low polyreactivity”.
In the case of “QVQLVESGGGLVQAGGSLRLSCAASGRIFQRYAMGWYRQAPGKERELVAVITKRGGNTYYADSVKGRFTISRDNAKNTVYLQMNSLKPEDTAVYYCATRSGRSTGDYWGQGTQVTVSS”, the “polyreactivity (PSR sort gate)” value is reported as “high polyreactivity”.
For “QVQLVESGGGLVQAGGSLRLSCAASGRIFQSNAMGWYRQAPGKEREFVARISKRGGSTYYADSVKGRFTISRDNAKNTVYLQMNSLKPEDTAVYYCAVRRHDRGTMGYWGQGTQVTVSS”, the “polyreactivity (PSR sort gate)” value was “low polyreactivity”.
In the case of “QVQLVESGGGLVQAGGSLRLSCAASGRIFQSNAMGWYRQAPGKERELVAAISYSGGSTYYADSVKGRFTISRDNAKNTVYLQMNSLKPEDTAVYYCAADIFSPAFDYWGQGTQVTVSS”, the “polyreactivity (PSR sort gate)” value is reported as “low polyreactivity”.
With “QVQLVESGGGLVQAGGSLRLSCAASGRIFQSYAMGWYRQAPGKERELVAGINSDTSTNYADSVKGRFTISRDNAKNTVYLQMNSLKPEDTAVYYCNAGWDTYYWQSTEFDYWGQGSQVTVSS” the “polyreactivity (PSR sort gate)” value was “low polyreactivity”.
With “QVQLVESGGGLVQAGGSLRLSCAASGRIFQTYAMGWYRQAPGKERELVAAISSRGRTYYADSVKGRFTISRDNAKNTVYLQMNSLKPEDTAVYYCAARDWSHRPRGYDYWGQGTQVTVSS” the “polyreactivity (PSR sort gate)” value was “high polyreactivity”.
For “QVQLVESGGGLVQAGGSLRLSCAASGRIFQTYTMGWYRQAPGKERELVARITGGDSTYYADSVKGRFTISRDNAKITVYLQMNSLKPEDTAVYYCAAEVWSYWGTFNYWGQGTQVTVSS”, the “polyreactivity (PSR sort gate)” value was “low polyreactivity”.
With “QVQLVESGGGLVQAGGSLRLSCAASGRIFQVNAMGWYRQAPGKERELVAAITYSGGTTYYADSVKGRFTISRDNAKNNVYLQMNRLKPEYTAVYYCAAEGYGAQGDPWQYGYEYWGQGTKVTVSS” the “polyreactivity (PSR sort gate)” value was “low polyreactivity”.
In the case of “QVQLVESGGGLVQAGGSLRLSCAASGRIFQWNAMGWYRQAPGKERELVAAITYSGSSTNYADSVKGRFTISRDNAKNTVYLQMNSLKPEDTAVFYCNRDFYQYLSYFWHYGYWGQGTQVTVSS”, the “polyreactivity (PSR sort gate)” value is reported as “low polyreactivity”.
In the case of “QVQLVESGGGLVQAGGSLRLSCAASGRIFQYNAMGWYRQAPGKDRELVAAIRRGGGSTYYADSVKGRFTISRDNAKNTVYLQMNSLKPEDTAVYYCAARRKRVSFYPEYDYWGQGTQVTVSS”, the “polyreactivity (PSR sort gate)” value is reported as “low polyreactivity”.
For “QVQLVESGGGLVQAGGSLRLSCAASGRIFQYNAMGWYRQAPGKERALVAAIRRGGGSTYYADSVKGRFTISRDNAKNTVYLQMNSLKPEDTAVYYCAARRKRVSFYPEYDYWGQGTQVTVSS”, the “polyreactivity (PSR sort gate)” value was “low polyreactivity”.
With “QVQLVESGGGLVQAGGSLRLSCAASGRIFQYNTMGWYRQAPGKERELVARISWSGGSTRYADSVKGRFTISRDNAKNTVDLQMNSLKPEETEVYYCAVQEAYRYAHAYYYWGQGTQVTVSS” the “polyreactivity (PSR sort gate)” value was “high polyreactivity”.
